From patent US20180140716A1

Assays:
CD33 on HL-60 cells = CD33 on HL-60 cells (UniProt P20138); experiment: cell-based or functional assay
[1] = biological target: 5T4 antigen on cells (human (human cancer cell lines)) (UniProt Q13641); experiment: flow cytometry (MFI) on 5T4 expressing cells, anti-Fc FITC detection
UniProt Q13641, sequence (Q13641 32-420): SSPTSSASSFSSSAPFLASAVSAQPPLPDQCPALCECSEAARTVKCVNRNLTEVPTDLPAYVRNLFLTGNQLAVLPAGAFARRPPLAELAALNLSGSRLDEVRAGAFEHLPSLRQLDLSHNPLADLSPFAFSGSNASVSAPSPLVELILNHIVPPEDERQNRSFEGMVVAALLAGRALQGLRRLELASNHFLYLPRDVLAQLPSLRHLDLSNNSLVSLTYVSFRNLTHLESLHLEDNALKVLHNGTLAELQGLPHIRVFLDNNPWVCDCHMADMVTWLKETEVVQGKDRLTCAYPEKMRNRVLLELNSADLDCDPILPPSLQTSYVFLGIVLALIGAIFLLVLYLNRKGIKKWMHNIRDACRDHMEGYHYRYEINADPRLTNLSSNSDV

UniProt P20138, sequence (P20138 18-364 limits assumed): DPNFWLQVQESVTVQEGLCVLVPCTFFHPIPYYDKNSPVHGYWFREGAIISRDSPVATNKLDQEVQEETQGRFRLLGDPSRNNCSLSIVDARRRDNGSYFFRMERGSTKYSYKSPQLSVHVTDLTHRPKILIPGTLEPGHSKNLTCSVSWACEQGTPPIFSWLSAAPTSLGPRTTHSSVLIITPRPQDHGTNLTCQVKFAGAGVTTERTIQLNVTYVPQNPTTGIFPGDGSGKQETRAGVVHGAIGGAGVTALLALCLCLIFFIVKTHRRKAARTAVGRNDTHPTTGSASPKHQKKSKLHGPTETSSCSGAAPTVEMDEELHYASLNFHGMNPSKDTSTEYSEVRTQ

Lintuzumab-((EG2-MI (2%)-(10 kDa PHF-BA (30%)-(AF-HPA-Ala (9%)), AF-HPA:lintuzumab about 10:1 to about 15:1 (antibody)
IC50, antiproliferation (Cell Titer-Glo), HL-60 cells (CD33 on HL-60 cells): 770 pM

non-binding scFvFc fusion protein
fold less binding than the anti-5T4 scFvFc proteins [1]: 200 fold less
